The target of the experiment is β-arrestin-2 (UniProt P32121). Nature of the experiment: anti-HA co-IP after DSS cross-linking, anti-Flag blot. The note with it: reference: wild type C3aR.

From publication PMC3471852 come the findings set out here.

“C3a receptor (C3aR) (from UniProt Q16581) MT2 (T463A/S465A/T466A/S470A)” came in with an other: percent decrease vs wild type (sites T463,S465,T466,S470) of 74%.

For the substance “C3a receptor (C3aR) (from UniProt Q16581) MT7 (S459A plus MT1 and MT2 substitutions)”, the “binding against the reference” value (sites S459,T463,S465,T466,S470,S475,S479,T480,T481) is “lost”.
